No end group written: not given here.

Experiment [1] has as its target RSVB18537.
Experiment [2] addresses hPIVC243.
Experiment [3] concerns the target RSVA2.

B1: HPIV3_3004 (native) HR2 ligand conjugated to cholesterol (Peptide Conjugate 12) (peptide)
peptide: VALDPIDISIELNKAKSDLEESKEWIRRSNQKLDSI
modifications: also: conjugated to cholesterol
As a reminder, the EC50 is the concentration at which the effect is half-maximal. The low end stands for greater potency, the high end for weaker potency. With B1, the concentration for a half-maximal effect (EC50) was less than 40 nM in experiment [1], more than 5290 nM in experiment [2] and 50 nM in experiment [3].

(Values after US20260131011A1.)
